Results on 32 variants are retold here after the RNAGym collection of RNA variant scans (doi:10.7554/elife.80360).

Sequences and labels used below:
B1: HDV Ribozyme (parent)
chain: GGCCGGCAUGGUCCCAGCCUCCUCGCUGGCGCCGGCUGGGCAACAUUCCGAGGGGACCGUCCCCUCGGUAAUGGCGAAUGGGACCCA

In the data set the parent is B1. The data set can be described thus: self-cleavage, relative activity (ratio to wild type); higher = more cleavage; co-transcriptional.
Consider GGCCGGCAUGGUCCCAGCCUCCUCGCUGGCGCCGGCUGGGUAACAUUCCGAGGGGAGCGUCCCCUCGGUAAUGGCGAAUGGGACCCA [C41U C57G], for which the self-cleavage turned out to be 1.09.
With GGCCGGCAUGGUCCCAGCGUCCUCGCUGGCGCCGGCUGGGCAGCAUUCCGAGGGGACCGUCCCCUCGGUAAUGGCGAAUGGGACCCA [C19G A43G], the self-cleavage amounted to 0.155.
In the case of GGCCGGCAUGGUCCCAGCCUCCUCGCUGGCGCCGGCUGGGCAACAUUCCGAGGGGACCGUUCCCUCGGUAAUGGCGAAUGGGACUCA [C61U C85U] it was 0.917; in that of GGCCGGCAUGGUCCCAGCCUCCUCGCUGGCGCCGGCUGGGCAAAAUUCCGAGGGGACCGUCCCCUCGGUGAUGGCGAAUGGGACCCA [C44A A70G], 0.703; in that of GGCCGGCAUGGUACCAGCCUCCUCGCUGGCGCCGGCUGGGCAACAUUCCGAGGGGACCGUCCCCUCGGUAAUGGCGAAUGGGAGCCA [C13A C84G], 0.237.
The figure for GGCCGGCAUGGUCCCAGCCUCCUCGCUGGCGUCCGCUGGGCAACAUUCCGAGGGGACCGUCCCCUCGGUAAUGGCGAAUGGGACCCA [C32U G34C] is 0.0875; for GGCCGGCAUGGUCCCAGGCUCCUCGCUGGCGCCGGCUGGGCAACAUUCCGAGGGGACCGUUCCCUCGGUAAUGGCGAAUGGGACCCA [C18G C61U] it is 0.0519.
Regarding GGGCGGCAUCGUCCCAGCCUCCUCGCUGGCGCCGGCUGGGCAACAUUCCGAGGGGACCGUCCCCUCGGUAAUGGCGAAUGGGACCCA [C3G G10C], the self-cleavage was 0.151.
The figure for GGCCGGCAUGGUCCCAGCCUCCUCGCUGGCGCCGGCUGGGCAACAUUCCGAGGGCACCGUCCCCUCGGUAAUGGCGAAUGGGAACCA [G55C C84A] is 1.07; for GGCCGGCAUGGUCCCAGCCUCCUCGCUGGCGCCGGCUGGGCAACCUUCCGAGGGGACCGUCCCCUCGGUAAUGGCGAAUGGGACCCG [A45C A87G] it is 0.554.
The figure for GGCCGGCAAGGUCCCAGCCUCCUCGCUGGCGCCGGCUGGGCAACAUUCCGAGGGGACCGUCCCCUCGGGAAUGGCGAAUGGGACCCA [U9A U69G] is 1.06; for GGCCGGCUUGGUCCCAGCCUCCUCGCUGGCGCCGGCUGGGCAACAUUCCGAGGGGACCGUCCCCUCGGUAAUGGCGAAGGGGACCCA [A8U U79G] it is 0.289.
The figure for GGCCGGCAUGGUCCCAGCCUCCUCGCUGGCGCGGGCUGGGCAACAUUCCGAGGCGACCGUCCCCUCGGUAAUGGCGAAUGGGACCCA [C33G G54C] is 0.143; for GGCCCGCAUGGUCCCAUCCUCCUCGCUGGCGCCGGCUGGGCAACAUUCCGAGGGGACCGUCCCCUCGGUAAUGGCGAAUGGGACCCA [G5C G17U] it is 0; for GGCCGGCAUGGUACCAGCCUCCUCGCGGGCGCCGGCUGGGCAACAUUCCGAGGGGACCGUCCCCUCGGUAAUGGCGAAUGGGACCCA [C13A U27G] it is 0.594.
With GGCCGCCAUGGUCCCAGCCUCCUCGCUGGCGCCGGCUGGGCAACAUUCCGAGGGGACCGUCCCCUCGGUCAUGGCGAAUGGGACCCA [G6C A70C], the self-cleavage is 0.133.
The figure for GGCCGGCAUGGUCCCAUCCUCCUCGAUGGCGCCGGCUGGGCAACAUUCCGAGGGGACCGUCCCCUCGGUAAUGGCGAAUGGGACCCA [G17U C26A] is 0.491; for GGCCGGCAUGGUCCCAGCCUCCUCGCUGGCGACGGUUGGGCAACAUUCCGAGGGGACCGUCCCCUCGGUAAUGGCGAAUGGGACCCA [C32A C36U] it is 0.0733.
The figure for GGCCGGCAUGGUCCCAGCCUCCUCGCUGGCGCCGGCUGGGCAUCAUUCCGAGGGGACCGUCCCCUCGGUAAUGGCGAAUGGGACCCU [A43U A87U] is 0.425; for GGCCGGCAUGGUCCCAGUCUCCUCGCUGGCGCCGGCUGGGCAACAUUCCGAGGGGACCGUCCCCUCGGUAAUGGCGAAUGUGACCCA [C18U G81U] it is 0.281; for GGCCGGCAUGCUCCCAGCCUCCUCGCGGGCGCCGGCUGGGCAACAUUCCGAGGGGACCGUCCCCUCGGUAAUGGCGAAUGGGACCCA [G11C U27G] it is 0.356.
The figure for GGCCGGCAUGGCCCCAGCCUCCUCGCUGGCGCCGGCUGGGCUACAUUCCGAGGGGACCGUCCCCUCGGUAAUGGCGAAUGGGACCCA [U12C A42U] is 0; for GGCCGGCAUGGUCCCAGCCUCCUCGCUGGGGCCGGCUGGGCAACAUUCCGAGGGGACCGUCCCCUCGGUAAUGGCGAAUGGGACCGA [C30G C86G] it is 0.0536.
Take GGCCGGCAUGGUCCCAGCCUCCUCGCUGGCGCCGGCUUGGCAACAUUCCGAGGGGACCGUCCCCUCGGUAAUGGCGAAUGAGACCCA [G38U G81A]: the self-cleavage worked out at 0.128.
In the case of GGCCGGCAUGGUCCCAGCCUCCUCGCUGGCGCCGGCUGGGCAACAUUCCGAGGGGACCGUCCCCUCGGUAAUGGCGAAUGGAGCCCA [G82A A83G] it was 0.156; in that of GGCCGGCAUGGUCCCAUCCUCCUCGCUGGCGACGGCUGGGCAACAUUCCGAGGGGACCGUCCCCUCGGUAAUGGCGAAUGGGACCCA [G17U C32A], 0.136; in that of GGCCGGCAUGGUCCCAGCCUCCUCGCUGGCGCCAGCUGGGCAACAUUCCGAGGGUACCGUCCCCUCGGUAAUGGCGAAUGGGACCCA [G34A G55U], 0.192.
In the case of GGCCGGCAUGGUCCCAGCCUCCUCGCUGGCGCCGGCUGGGCAUCAUUCCGAGGGGACCGUCCCCUCGGUAAUGGCGCAUGGGACCCA [A43U A77C] it was 0.0519.
The figure for GGCCGGCAUGGUCCCAGCCUCCUCGCUGGCGCCGGCUGGGCAACCUUCCGAGGGGACCGUCCCCUCGGUAAGGGCGAAUGGGACCCA [A45C U72G] is 1.11; for GGCCGGCAUGGUCCCAGCCUCCUCGCUGGCGCCGGCUGGGCAACAUUCCGAGGUGACCGUCCCCUCGGUAAUGGCGGAUGGGACCCA [G54U A77G] it is 0.878.
As to GGCCGGCAUGGUCCCAGCCUCCUCGCUGGCGCCGGCUGGGCAACAUUCCGAGGUGACCGUCCCCUCGGUAAUGGCGUAUGGGACCCA [G54U A77U], the self-cleavage was determined as 0.688.
In the case of GGCCGGCAUGGUCCCAGCCUCCUCGCUGGCGCCGGCUGGGCUACAUUCCGAGGGUACCGUCCCCUCGGUAAUGGCGAAUGGGACCCA [A42U G55U] it was 0.597.
